Laboratory results: US20250122271A1, “ANTI-DKK1 ANTIBODY, PHARMACEUTICAL COMPOSITION THEREOF, AND USE THEREOF” (SHANGHAI JUNSHI BIOSCIENCES CO., LTD., priority 2022, published 2025)
Read-outs that look alike come from different tables or passages of the source.

T1: human DKK1 (Homo sapiens, UniProt O94907)
T1 construct: purchased Sino Biological 10170-H08H
T1 sequence (O94907 32-266): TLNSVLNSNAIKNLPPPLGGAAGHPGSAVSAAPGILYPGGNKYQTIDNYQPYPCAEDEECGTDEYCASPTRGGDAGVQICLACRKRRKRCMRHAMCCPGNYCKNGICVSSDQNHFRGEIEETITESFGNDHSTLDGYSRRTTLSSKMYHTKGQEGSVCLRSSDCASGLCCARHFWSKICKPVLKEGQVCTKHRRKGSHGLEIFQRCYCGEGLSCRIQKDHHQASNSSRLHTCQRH

T2: human DKK1 antigen (Sino Biological, 10170-H08H) (human, UniProt O94907 32-266)
T2 chain: T1 sequence (O94907 32-266)

T3: human DKK1 antigen (Sino Biological, 10170-H08H) (human, UniProt O94907 32-266)
T3 construct: also called huDKK1; hDKK1
T3 sequence (looked up): T1 sequence (O94907 32-266)

B1: chi-15: chimeric antibody 3VH+3VL (SEQ ID NO: 41/42) (antibody, V domains shown)
VH: MGWNCFILFLVATATGVHSQVQLQQPGAELVKPGASVKMSCKASGYTFTSYNMLWVKQTPGQGLEWIGVIFPGNGDTSYNPKFKGKAALTADKSSSTAYMQLSSLTSEDSAVYYCARDGYPSMDYWGQGTSVTVSS
VL: MLSLAPLLSLLLLCVSDSRAETIVTQSPASLSVATGEKVTIRCITSTDIDDDMNWYQQKPGEPPKLLISEGNSLRPGVPSRFSSSGYGTDFVFTIENTLSEDVADYYCLQFNNMPLTFGAGTKLELK
B2: chi-8: chimeric antibody 2VH+2VL (SEQ ID NO: 39/40) (antibody, V domains shown)
VH: MGWSWIFLFLLSGTAGVLSEVQLQQSGPELVKPGASVKIFCKTSGYTFTENTMHWVKQTHGKSLEWIGGINPHKGGTSYNQKFKGKATLTVDKSSSTACMELRSLTSEDSTVYYCARDWLGAMDYWGQGTSVTVSP
VL: MFSLALLLSLLLLCVSDSRAETTVTQSPASLSMAIGEKVTIRCITSTDIDDDMNWYQQKPGEPPKLLISEGNTLRPGVPSRFSSSGYGTDFVFTIENMLSEDVADYYCLQSDNLPYTFGGGTKLEIK
B3: chi-21 (antibody, V domains shown)
VH: QVQLQQPGAELVKPGASVKMSCKASGYTFTSYNMLWVKQTPGQGLEWIGVIFPGNGDTSYNPKFKGKAALTADKSSSTAYMQLSSLTSEDSAVYYCARDGYPSMDYWGQGTSVTVSS
VL: QIVLTQSPVIMSASPGEKVTMTCSASSSVSYMYWYQQKPGSSPRLLIYDTSNLASGVPVRFSGSGSGTSYSLTISRMEAEDAATYYCQQWSSYPPALTFGAGTKLELK
B4: chimeric antibody chi-15 (antibody, human IgG4 S228P, kappa, V domains shown)
VH: B3 VH
VL: ETIVTQSPASLSVATGEKVTIRCITSTDIDDDMNWYQQKPGEPPKLLISEGNSLRPGVPSRFSSSGYGTDFVFTIENTLSEDVADYYCLQFNNMPLTFGAGTKLELKR
notes: hIgG4 heavy constant region and human kappa constant region; also called No. 3 chimeric antibody molecule
B5: chi-1: chimeric antibody 1VH+1VL (SEQ ID NO: 37/38) (antibody, V domains shown)
VH: MGWSWIFLFLLSGTAGVLSEVQLQQSGPELVKPGASVRISCKTSGYTFTEYTMHWVKQSHGKSLEWIGVIDPSNGDTSYNQKFKGRATLTVDKSSSTAYMDLRSLTSEDSALYYCSSTTGPWFACWGQGTLVTVSA
VL: MSSAQFLGLLLLCFQGTRCDIQMTQTTSSLSASLGDRVTINCRASQDISNYLNWYQQKPDGTVKLLIYYKSRLHSGVPTRFSGSGSGTDFSLTISNLVQEDIATYFCQQVHTLPPTFGGGTKLEIK
B6: chimeric antibody chi-8 (antibody, human IgG4 S228P, kappa, V domains shown)
VH: EVQLQQSGPELVKPGASVKIFCKTSGYTFTENTMHWVKQTHGKSLEWIGGINPHKGGTSYNQKFKGKATLTVDKSSSTACMELRSLTSEDSTVYYCARDWLGAMDYWGQGTSVTVSP
VL: ETTVTQSPASLSMAIGEKVTIRCITSTDIDDDMNWYQQKPGEPPKLLISEGNTLRPGVPSRFSSSGYGTDFVFTIENMLSEDVADYYCLQSDNLPYTFGGGTKLEIKR
notes: hIgG4 heavy constant region and human kappa constant region; also called No. 2 chimeric antibody molecule
B7: chimeric antibody chi-1 (antibody, human IgG4 S228P, kappa, V domains shown)
VH: EVQLQQSGPELVKPGASVRISCKTSGYTFTEYTMHWVKQSHGKSLEWIGVIDPSNGDTSYNQKFKGRATLTVDKSSSTAYMDLRSLTSEDSALYYCSSTTGPWFACWGQGTLVTVSA
VL: DIQMTQTTSSLSASLGDRVTINCRASQDISNYLNWYQQKPDGTVKLLIYYKSRLHSGVPTRFSGSGSGTDFSLTISNLVQEDIATYFCQQVHTLPPTFGGGTKLEIKR
notes: hIgG4 heavy constant region and human kappa constant region; also called No. 1 chimeric antibody molecule

Tests used:
A549 cells = assay: A549 subcutaneous transplantation tumor model in CB17/SCID female mice; format: in vivo
Experimental: The experimental animals were CB17/SCID female mice, and A549 cells (5× 10^6) were subcutaneously inoculated into the mice to establish a subcutaneous transplantation tumor model. […] The groups each had 6 animals, and the animals in all the groups were subjected to intraperitoneal injection. […] The efficacy was evaluated based on tumor growth inhibition (TGI) (FIG. 9).

[1] = tested on: advanced gynecological cancers; conditions: patients with high expression of DKK1, stage 2 clinical; cited from earlier work
human DKK1 [2] = target: T1, human DKK1; assay: Luciferase reporter gene assay in 293 TOP cells with Wnt3a and human DKK1 (recovery of Wnt signaling); format: cell-based; conditions: screening at protein and cellular level
Experimental: The cellular biological activity of the DKK1 antibodies was tested using target cells 293 TOP overexpressing LRP5/6 and comprising the luciferase reporter system and recombinant Wnt3a (R&D systems, cat #5036-WN), as well as human DKK1 (Sino Biological, cat #10170-H08H) protein. The target cells 293 TOP were placed into a 96-well flat-bottomed white plate (corning, cat #3917) at 50,000 cells per well for incubation overnight. The supernatant was then discarded, and the gradiently diluted antibodies to be tested were each added for pre-incubation at 37° C. for 0.5 h. After the pre-incubation was completed, the diluted Wnt3a (R&D systems, cat #5036-WN) and human DKK1 protein, at working concentrations of 0.05 μg/mL and 0.1 μg/mL, respectively, were added into the mixture containing the cells and antibody for co-incubation at 37° C. for 6-8 h. Finally, the luciferase substrate One-Lite (Vazyme, cat #DD1203-03-AB) was added and the chemiluminescence values of the hybridoma antibodies were measured.
(§1) The cellular biological activity of the hDKK1 chimeric antibodies was tested using target cells 293 TOP overexpressing LRP5/6 and comprising the luciferase reporter system and recombinant Wnt3a (R&D systems, cat #5036-WN), as well as human DKK1 (Sino Biological, cat #10170-H08H) protein.
The target cells 293 TOP were placed into a 96-well flat-bottomed white plate (corning, cat #3917) at 50,000 cells per well for incubation overnight. […] Finally, the luciferase substrate One-Lite (Vazyme, cat #DD1203-03-AB) was added and the chemiluminescence values of the chimeric antibodies were measured (FIGS. 5A-5C).
as §1, with “DKK1” for “hDKK1 chimeric”, “protein. […] Finally, the luciferase substrate One-Lite (Vazyme, cat #DD1203-03-AB) was added and the chemiluminescence values of the humanized antibodies were measured. […]” for “protein.”

human DKK1 [3] = target: T1, human DKK1; assay: Binding of antibodies to human DKK1 by ELISA; conditions: chimeric antibodies, compared among each other
Experimental: (§2) Detection of the binding activity of the chimeric antibodies for human DKK1 by ELISA: After the plate was coated with 2.0 μg/mL human DKK1 antigen (Sino Biological, 10170-H08H) for 90 min and then blocked with 2% BSA for 90 min, the gradiently diluted anti-DKK1 chimeric antibodies and positive control antibody DKN-01 (starting at 1 μg/mL, diluted in a 2.5-fold gradient to 1.64 ng/ml, with a total of 8 concentrations) were added, and the mixture was incubated for 60 min. After the plate was washed, the 5000-fold diluted HRP-conjugated goat anti-human IgG (Fc specific) (Sigma, A0170) secondary antibody was added for incubation, and 0.1 mg/mL TMB (Sigma, T2885) was added for color development. Finally, the reaction was stopped with a 2 M hydrochloric acid solution. The plate was read at 450 nm/620 nm using a Thermo Scientific microplate reader, and the EC50 values of the chimeric antibodies (FIG. 3) were obtained by fitting using a four-parameter logistic regression (4PL) model.
Detection of the binding of the humanized antibodies to DKK1 by ELISA: The plate was coated with 2.0 μg/mL human DKK1 antigen (Sino Biological, 10170-H08H) for 90 min and then blocked with 2% BSA for 90 min. After the plate was washed, the gradiently diluted anti-DKK1 humanized antibodies (starting at 1 μg/mL, diluted in a 10-fold gradient to 1 ng/ml, with a total of 4 concentrations) were each added, and the mixture was incubated for 60 min. After the plate was further washed, the 5000-fold diluted HRP-conjugated goat anti-human IgG (Fc specific) (Sigma, A0170) secondary antibody was added for incubation for 30 min, and 0.1 mg/mL TMB (Sigma, T2885) was added at 100 μL per well for color development for 10 min. Finally, a 2 M hydrochloric acid solution was added at 50 μL per well to stop the reaction. The plate was read at 450 nm/620 nm using a Thermo Scientific microplate reader. The EC50 values of the humanized antibodies were obtained by fitting using a four-parameter logistic regression (4PL) model.

[4] = target: T2, human DKK1 antigen (Sino Biological, …); assay: ELISA blocking of DKK1-LRP6
[5] = target: T2, human DKK1 antigen (Sino Biological, …); assay: ELISA binding
[6] = target: T2, human DKK1 antigen (Sino Biological, …); assay: ELISA blocking of DKK1-LRP6
[7] = target: T3, human DKK1 antigen (Sino Biological, …); assay: ELISA, coated human DKK1
Experimental: as §2

[8] = target: T2, human DKK1 antigen (Sino Biological, …); assay: ELISA binding
[9] = target: T2, human DKK1 antigen (Sino Biological, …); assay: ELISA binding; given as IC50

Row | Molecule | in vitro activity in the screening of the chimeric antibodies of Example 4 (human DKK1 [2]) | relative binding activity for human DKK1 (ELISA) (human DKK1 [3]) | IC50 [4] [µg/mL] | binding result [7] | also measured
1 | CC(=O)O[C@H]1C(=O)[C@@]2(C)[C@H]([C@H](OC(=O)c3ccccc3)[C@]3(O)C[C@H](OC(=O)[C@H](O)[C@@H](NC(=O)c4ccccc4)c4ccccc4)C(C)=C1C3(C)C)[C@]1(OC(C)=O)CO[C@@H]1C[C@@H]2O [paclitaxel, reference compound] |  |  |  |  | tumor growth inhibition (TGI) (A549 cells; day 35, paclitaxel 20 mg/kg intraperitoneal twice per week for 4 weeks): 60.48%
2 | DKN-01: positive control anti-DKK1 monoclonal antibody; heavy and light chains SEQ ID NO: 108 and SEQ ID NO: 109 |  |  |  |  | disease control rate [1]: 57%; objective remission rate [1]: 14%; tumor growth inhibition (TGI) (A549 cells; day 35 after tumor inoculation, 5 mg/kg intraperitoneal once per week for 4 weeks): 23.27%
3 | B1 | best in vitro activity | superior activity |  |  | 
4 | B2 | best in vitro activity | superior activity |  |  | 
5 | B3 |  |  | 0.92 |  | EC50 [5]: 0.816 µg/mL
6 | B4 |  |  | 0.0992 | binds | IC50 [6]: 0.258 µg/mL; EC50 [8]: 0.0244 µg/mL; EC50 [5]: 0.0238 µg/mL
7 | B5 | best in vitro activity | superior activity |  |  | 
8 | B6 |  |  | 0.309 | binds | EC50 [9]: 0.0434 µg/mL
9 | B7 |  |  | 0.355 | binds | EC50 [9]: 0.0238 µg/mL
